Test results reported in patent publication CN111690061A (EASTERN THEATER COMMAND DISEASE CONTROL AND PREVENTION …, dated 2020).

Target: T1, 鼠疫耶尔森菌抗原F1 (重组F1蛋白) (Yersinia pestis, UniProt P26948 22-170)
T1 construct: also called F1抗原; 鼠疫抗原F1
Experiment: immunological detection (免疫学检测)

T1 sequence (P26948 22-170 limits assumed): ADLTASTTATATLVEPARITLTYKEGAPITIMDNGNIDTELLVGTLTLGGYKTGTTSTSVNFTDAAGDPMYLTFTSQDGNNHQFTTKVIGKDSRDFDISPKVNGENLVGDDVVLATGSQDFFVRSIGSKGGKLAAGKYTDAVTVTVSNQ

B1: 人鼠嵌合单克隆抗体 hm YF202 (antibody, V domains shown)
VH: ESGPDLVKPSQSLSLTCTVTGYSITSGYSWHWIRQFPGNKLEWMGYIHYSGSTNYNPSLKSRISITRDTSKNQFFLQLNSVTTEDTATYYCARNYAMDYWGQGTLVTVS
VL: DIVMTQSPKFMSTSVGDRVSVTCKASQNVGTNVAWYQQKPGQSPKALIYSASYRYSGVPDRFTGSGSGTDFTLTISNVQSEDLAEYFCQQYNSYPYTFGGGTKLEIKR
notes: also called 抗F1的人鼠嵌合单克隆抗体
  binding result: binds
